Source: patent US20240254229A1 (Molecular Partners, published 2024)

T1: human scCD3εγ (scCD3εγ_Avi-Bio) (human, biotin on the C-terminal Avi-tag (in vitro, BirA) where the biotinylated form was used)
T1 construct: Used for all SPR and HTRF results on human CD3; also called recombinant human CD3; human CD3
T1 chain: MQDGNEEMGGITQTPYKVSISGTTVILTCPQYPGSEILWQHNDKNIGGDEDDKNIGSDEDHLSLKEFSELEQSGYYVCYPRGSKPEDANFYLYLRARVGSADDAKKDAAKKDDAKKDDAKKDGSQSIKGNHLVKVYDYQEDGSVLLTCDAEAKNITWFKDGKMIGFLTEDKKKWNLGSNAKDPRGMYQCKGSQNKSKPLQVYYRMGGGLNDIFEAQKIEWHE

T2: biotinylated extracellular domains of human CD123 (uniprot ID 26951), Fc format (human, UniProt P26951 19-305, biotinylated)
T2 construct: extracellular domain
T2 sequence (looked up): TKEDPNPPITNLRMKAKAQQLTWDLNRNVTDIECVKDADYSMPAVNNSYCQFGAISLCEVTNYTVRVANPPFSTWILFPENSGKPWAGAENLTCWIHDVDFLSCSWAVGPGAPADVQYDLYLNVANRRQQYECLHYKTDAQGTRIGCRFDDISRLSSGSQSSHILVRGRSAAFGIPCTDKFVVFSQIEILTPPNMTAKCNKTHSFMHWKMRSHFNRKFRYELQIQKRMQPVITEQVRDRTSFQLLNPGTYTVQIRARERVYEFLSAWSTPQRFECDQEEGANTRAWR


Legend:
[1] = biological target: T3, human CD3 on primary human pan-T cells (human, UniProt P07766 23-207; P09693 23-182; P04234 22-171; P20963 22-164); assay: Mirrorball cytometry on primary human pan-T cells, 600 µM HSA
T3 construct: whole, on cells; Native complex on T cells isolated from PBMC; also called CD3 on Pan-T cells
T3 sequence (P07766 23-207, chain 1 of 4): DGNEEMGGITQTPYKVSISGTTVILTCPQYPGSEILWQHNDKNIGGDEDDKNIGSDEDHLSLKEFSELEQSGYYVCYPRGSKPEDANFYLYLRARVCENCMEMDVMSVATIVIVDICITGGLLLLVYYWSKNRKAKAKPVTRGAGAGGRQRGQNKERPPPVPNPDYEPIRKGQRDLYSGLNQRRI
T3 sequence (P09693 23-182, chain 2 of 4): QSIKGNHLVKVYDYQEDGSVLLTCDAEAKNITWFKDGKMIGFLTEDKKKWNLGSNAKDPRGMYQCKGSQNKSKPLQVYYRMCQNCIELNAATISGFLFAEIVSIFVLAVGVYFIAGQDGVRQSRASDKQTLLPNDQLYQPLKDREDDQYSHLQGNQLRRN
T3 sequence (P04234 22-171, chain 3 of 4): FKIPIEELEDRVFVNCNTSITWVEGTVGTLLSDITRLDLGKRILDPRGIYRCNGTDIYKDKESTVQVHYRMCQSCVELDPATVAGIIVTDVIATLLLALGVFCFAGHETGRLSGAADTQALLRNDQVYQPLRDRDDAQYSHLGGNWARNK
T3 sequence (P20963 22-164, chain 4 of 4): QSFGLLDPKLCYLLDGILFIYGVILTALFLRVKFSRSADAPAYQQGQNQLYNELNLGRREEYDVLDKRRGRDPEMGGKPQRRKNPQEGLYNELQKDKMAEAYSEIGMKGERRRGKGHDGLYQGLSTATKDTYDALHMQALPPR
Procedure: The determination of CD3 binding was performed with primary human T cells using Mirrorball laser scanning imaging cytometry. Therefore, primary T cells were isolated from human peripheral blood mononuclear cells (PBMCs) using a pan-T cell purification kit (Miltenyi Biotec). A titration of DARPin® protein #7, DARPin® protein #8 and DARPin® protein #9 and DARPin® protein #10, formatted into a trispecific format (including CD33 and CD123 binding ankyrin repeat domains), DARPin® protein #11, DARPin® protein #12, DARPin® protein #13 and DARPin® protein #14 UN tetraspecific format (including an additional ankyrin repeat domain binding specifically to human serum albumin) were incubated with 50′000 pan-T cells per well in presence of 600 μM human serum albumin (to mimic physiological serum concentration) for 30 minutes at 4° C. Two benchmark T-cell engagers, AMG330 and flotetuzumab were applied as controls, targeting CD33 or CD123. After washing, CD3 binding was detected by 1:100-diluted anti-penta-His Alexa Fluor 488 antibody (Qiagen). After 30 min incubation at 4° C., cells were washed and resuspended in Cytofix fixation buffer (BD Biosciences) and counterstained by 5 μM DRAQ5 (Abcam) for 15 min at RT. Median of mean fluorescence intensities of Alexa Fluor 488 binding on far-red counterstained cells were measured by Mirrorball using Cellista software (SPT Labtech) and data was plotted using GraphPad Prism 8.

[2] = biological target: T1, human scCD3εγ (scCD3εγ_Avi-Bio); assay: SPR (ProteOn), biotinylated scCD3εγ on NLC chip, DARPin as analyte
Procedure: The binding affinities of four purified ankyrin repeat proteins on recombinant human CD3 target were analyzed using a ProteOn instrument (BioRad) and the measurement was performed according standard procedures known to the person skilled in the art. For that, DARPin® protein #7, DARPin® protein #8 and DARPin® protein #9 and DARPin® protein #10 of the invention were subcloned and expressed as described above into derivatives of the pQE30 (Qiagen) expression vector, containing an N-terminal His-tag, CD33 and CD123 binding ankyrin repeat domains, followed by one of the four CD3 specific ankyrin repeat protein constructs.
(§1) Briefly, biotinylated human scCD3εγ was diluted in PBST (PBS, pH 7.4 containing 0.005% Tween 200) and coated on a NLC chip (BioRad) to a level of around 700-1400 resonance units (RU). The interaction of ankyrin repeat protein and human CD3 was then measured by injecting 300 μl running buffer (PBS, pH 7.4 containing 0.005% Tween 200) containing serial dilutions of ankyrin repeat proteins covering a concentration range between 64 nM and 4 nM for multi-trace SPR measurements, followed by a running buffer flow for at least 10 minutes at a constant flow rate of 60 μl/min (off-rate measurement). The regeneration was performed using 30 μl of 10 mM Glycine pH 2. The signals (i.e. resonance unit (RU) values) of the interspots and a reference injection (i.e. injection of running buffer only) were subtracted from the RU traces obtained after injection of ankyrin repeat protein (double-referencing). While binding was too weak for DARPin® protein #7, binding parameters (KD, on-rate, off-rate) against CD3 were determined for affinity matured constructs. On-rates (kₒₙ) and dissociation constants (KD) are given only as approximation because binding equilibrium was not appropriately reached even at highest samples concentration, leading to non-optimal fits for on-rates.
Dissociation constants (KD) were calculated from the estimated on- and off-rates using standard procedures known to the person skilled in the art.

[3] = biological target: T4, biotinylated extracellular domains of human CD33 (Speed BioSystems, cat #YCP2045) (human, UniProt P20138 18-259, biotinylated); assay: SPR (ProteOn), biotinylated target on chip
T4 construct: extracellular domain
T4 sequence (P20138 18-259): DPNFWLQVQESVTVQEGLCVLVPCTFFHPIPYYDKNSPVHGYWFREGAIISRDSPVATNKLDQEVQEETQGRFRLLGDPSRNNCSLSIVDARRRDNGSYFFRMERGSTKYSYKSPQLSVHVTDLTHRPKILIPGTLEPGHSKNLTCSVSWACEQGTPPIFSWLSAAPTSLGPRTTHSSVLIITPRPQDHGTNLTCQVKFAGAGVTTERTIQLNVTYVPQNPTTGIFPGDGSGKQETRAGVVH
Procedure: as §1
(§2) The binding affinities of two purified ankyrin repeat proteins on recombinant human CD33 and CD123 target respectively were analyzed using a ProteOn instrument (BioRad) and the measurement was performed according standard procedures known to the person skilled in the art. For that, DARPin® protein #25 (with binding specificity for CD33 and CD3), DARPin® protein #26 (with binding specificity for CD123 and […]) of the invention were subcloned and expressed as described above into derivatives of the pQE30 (Qiagen) expression vector, containing an N-terminal His-tag, CD33 or CD123 binding ankyrin repeat domains respectively, followed by one of the four CD3 specific ankyrin repeat protein constructs. The following steps were performed as described in A above. Briefly, biotinylated extracellular domains of human CD33 (provided by Speed BioSystems, Lot no cat #YCP2045) as target protein was used for the assessment of DARPin® protein #25 and biotinylated extracellular domains of human (uniprot ID 26951) for the assessment of DARPin® protein #26 accordingly.

[4] = biological target: T2, biotinylated extracellular domains of …; assay: SPR (ProteOn), biotinylated target on chip
Procedure: as §1, §2

[5] = biological target: T5, biotinylated extracellular domain of human CD33 (SEQ ID NO: 87), Fc and Avi tagged (human, UniProt P20138 18-259, biotinylated with BirA-GST (Avi tag)); assay: crude extract HTRF, 6 nM biotinylated hCD33
T5 construct: also called hCD33; human target hCD33
T5 sequence (P20138 18-259 R69G): as the sequence (P20138 18-259) above, with R52G counted along it
From the text: Similarly, individual selected ankyrin repeat proteins specifically binding to hCD33 in solution were identified by a Homogeneous Time Resolved Fluorescence (HTRF) assay using crude extracts of ankyrin repeat protein-expressing Escherichia coli cells using standard protocols. Ankyrin repeat protein clones selected by ribosome display were cloned into derivatives of the pQE30 (Qiagen) expression vector (pMPDV045), which contains a C-terminal CD3 binding designed ankyrin repeat protein followed by a Flag tag, transformed into E. coli XL1-Blue (Stratagene), plated on LB-agar (containing 1% glucose and 50 μg/ml ampicillin) and then incubated overnight at 37° C. […]
The extract of each lysed clone was applied as a 1:1000 dilution (final concentration) in PBSTB (PBS supplemented with 0.1% Tween 20® and 0.2% (w/v) BSA, pH 7.4) together with 6 nM (final concentration) biotinylated hCD33 (full-length or splice variant of ECD CD33), 1:400 (final concentration) of anti-strep-Tb HTRF antibody-FRET donor conjugate (Cisbio) and 1:400 (final concentration) of anti-6His-D2 antibody FRET acceptor conjugate (Cisbio) to a well of 384 well plate and incubated for 60 minutes at RT. The HTRF was read-out on a Tecan M1000 using a 340 nm excitation wavelength and a 665±10 nm emission filter. […]

| Binder | EC50 [1] [nM] | Kd [2] [nM] | koff [2] [s⁻¹] | kon [2] [M⁻¹ s⁻¹] | further results |
| --- | --- | --- | --- | --- | --- |
| DARPin® protein #8 (designed binder, CD123-CD33-CD3 ankyrin repeat protein, no half-life extension; also called DARPin® #8; not shown: N-terminal His-tag) DLGKKLLEAARAGQDDEVRILMANGADVNALDWLGHTPLHLAAYEGHLEIVEVLLKNGADVNAIDDNNGFTPLHLAAIDGHLEIVEVLLKNGADVNAQDKFGKTAFDISIDNGNEDLAEILQKAAGSPTPTPTTPTPTPTTPTPTPTGSDLGDKLLLAATSGQDDEVRILLAAGADVNAKDYDGDTPLHLAADEGHLEIVEVLLKAGADVNAKDYSGSTPLHAAAAYGHLEIVEVLLKAGADVNAQDVFGYTPADLAAYVGHEDIAEVLQKAAGSPTPTPTTPTPTPTTPTPTPTGSDLGQKLLEAAWAGQDDEVRELLKAGADVNAKNSRGWTPLHTAAQTGHLEIFEVLLKAGADVNAKDDKGVTPLHLAAALGHLEIVEVLLKAGADVNAQDSWGTTPADLAAKYGHEDIAEVLQKAA | 250 to 400 | ~35 | 0.0015 | ~49000 | – |
| DARPin® protein #9 (designed binder, CD123-CD33-CD3 ankyrin repeat protein, no half-life extension; also called DARPin® #9; not shown: N-terminal His-tag) DLGKKLLEAARAGQDDEVRILMANGADVNALDWLGHTPLHLAAYEGHLEIVEVLLKNGADVNAIDDNNGFTPLHLAAIDGHLEIVEVLLKNGADVNAQDKFGKTAFDISIDNGNEDLAEILQKAAGSPTPTPTTPTPTPTTPTPTPTGSDLGDKLLLAATSGQDDEVRILLAAGADVNAKDYDGDTPLHLAADEGHLEIVEVLLKAGADVNAKDYSGSTPLHAAAAYGHLEIVEVLLKAGADVNAQDVFGYTPADLAAYVGHEDIAEVLQKAAGSPTPTPTTPTPTPTTPTPTPTGSDLGQKLLEAAWAGQDDEVRELLKAGADVNAKNSRGWTPLHTAAQTGHLEIFEVLLKAGADVNAKNDKRVTPLHLAAALGHLEIVEVLLKAGADVNARDSWGTTPADLAAKYGHQDIAEVLQKAA | 50 to 100 | ~15 | 0.0013 | ~89000 | – |
| DARPin® protein #10 (designed binder, CD123-CD33-CD3 ankyrin repeat protein, no half-life extension; also called DARPin® #10; not shown: N-terminal His-tag) DLGKKLLEAARAGQDDEVRILMANGADVNALDWLGHTPLHLAAYEGHLEIVEVLLKNGADVNAIDDNNGFTPLHLAAIDGHLEIVEVLLKNGADVNAQDKFGKTAFDISIDNGNEDLAEILQKAAGSPTPTPTTPTPTPTTPTPTPTGSDLGDKLLLAATSGQDDEVRILLAAGADVNAKDYDGDTPLHLAADEGHLEIVEVLLKAGADVNAKDYSGSTPLHAAAAYGHLEIVEVLLKAGADVNAQDVFGYTPADLAAYVGHEDIAEVLQKAAGSPTPTPTTPTPTPTTPTPTPTGSDLGQKLLEAAWAGQLDEVRILLKAGADVNAKNSRGWTPLHTAAQTGHLEIFEVLLKAGADVNAKTNKRVTPLHLAAALGHLEIVEVLLKAGADVNARDTWGTTPADLAAKYGHRDIAEVLQKAA | 5 to 15 | ~6 | 0.00041 | ~82000 | – |
| DARPin® protein #25 (designed binder, CD33-CD3; not shown: N-terminal His-tag) DLGDKLLLAATSGQDDEVRILLAAGADVNAKDYDGDTPLHLAADEGHLEIVEVLLKAGADVNAKDYSGSTPLHAAAAYGHLEIVEVLLKAGADVNAQDVFGYTPADLAAYVGHEDIAEVLQKAAGSPTPTPTTPTPTPTTPTPTPTGSDLGQKLLEAAWAGQDDEVRILLAAGADVNAKNSRGWTPLHTAAQTGHLEIFEVLLKAGADVNAKNDKRVTPLHLAAALGHLEIVEVLLKAGADVNARDSWGTTPADLAAKYGHGDIAEVLQKLN | – | – | – | – | Kd [3]: 7.3 nM; koff [3]: 0.0304 s⁻¹; kon [3]: 4.2e+06 M⁻¹ s⁻¹ |
| DARPin® protein #26 (designed binder, not shown: N-terminal His-tag) DLGKKLLEAARAGQDDEVRILMANGADVNALDWLGHTPLHLAAYEGHLEIVEVLLKNGADVNAIDDNNGFTPLHLAAIDGHLEIVEVLLKNGADVNAQDKFGKTAFDISIDNGNEDLAEILQKAAGSPTPTPTTPTPTPTTPTPTPTGSDLGQKLLEAAWAGQDDEVRILLAAGADVNAKNSRGWTPLHTAAQTGHLEIFEVLLKAGADVNAKNDKRVTPLHLAAALGHLEIVEVLLKAGADVNARDSWGTTPADLAAKYGHGDIAEVLQKLN | – | – | – | – | Kd [4]: 9.5 nM; koff [4]: 0.017 s⁻¹; kon [4]: 1.79e+06 M⁻¹ s⁻¹ |
| DARPin® protein #37 (designed binder, CD33-specific domain) DLGWKLLLAASRGQDDEVRILLAAGADVNAKDIDEGYTPLHIAAYYGHLEIVEVLLKAGADVNAKDRYGKTPLHLAAISGHEDIAEVLLKAGADVNAQDDKGDTPADLAADYGHEDIAEVLQKAA | – | – | – | – | binding result [5]: binds |
